Assay results published in the supplement of paper PMC10567573.

B1: PPEF2 (parent)
chain: FIPSSHNDRDFLTRIFTEDRFAQD

Variants of: B1
Assay: protein stability index of a GFP-peptide fusion (GPS, HEK-293T) (PSI 1-6); higher = more stable
Conditions: c terminus: a fixed tail appended
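Further: lentivirally expressed fusions sorted by FACS into six bins by GFP to DsRed ratio, PSI derived from sequencing read proportions per bin multiplied by bin number.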

Compared with LIPSSHNDRDFLTRIFTEDRFAQD [F1L], QIPSSHNDRDFLTRIFTEDRFAQD [F1Q] is higher in protein stability index: 3.73 for the first, 4.19 for the second.

Going from PIPSSHNDRDFLTRIFTEDRFAQD [F1P] to RIPSSHNDRDFLTRIFTEDRFAQD [F1R], the protein stability index falls from 4.18 to 3.75.

Going from WIPSSHNDRDFLTRIFTEDRFAQD [F1W] to YIPSSHNDRDFLTRIFTEDRFAQD [F1Y], the protein stability index falls from 3.04 to 1.63.

First: MIPSSHNDRDFLTRIFTEDRFAQD [F1M]
Second: AIPSSHNDRDFLTRIFTEDRFAQD [F1A]
The protein stability index of the first is lower: 4.06 for the first, 4.31 for the second.

Compared with HIPSSHNDRDFLTRIFTEDRFAQD [F1H], EIPSSHNDRDFLTRIFTEDRFAQD [F1E] is lower in protein stability index: 4.22 for the first, 4.06 for the second.

Going from KIPSSHNDRDFLTRIFTEDRFAQD [F1K] to TIPSSHNDRDFLTRIFTEDRFAQD [F1T], the protein stability index rises from 3.85 to 4.21.

Going from IIPSSHNDRDFLTRIFTEDRFAQD [F1I] to GIPSSHNDRDFLTRIFTEDRFAQD [F1G], the protein stability index rises from 3.54 to 4.38.

First: NIPSSHNDRDFLTRIFTEDRFAQD [F1N]
Second: CIPSSHNDRDFLTRIFTEDRFAQD [F1C]
The protein stability index of the first is lower: 4.05 for the first, 4.21 for the second.

Compared with SIPSSHNDRDFLTRIFTEDRFAQD [F1S], VIPSSHNDRDFLTRIFTEDRFAQD [F1V] is lower in protein stability index: 4.4 for the first, 3.88 for the second.

Going from DIPSSHNDRDFLTRIFTEDRFAQD [F1D] to FIPVSHNDRDFLTRIFTEDRFAQD [S4V], the protein stability index falls from 3.89 to 2.29.

Compared with FIPLSHNDRDFLTRIFTEDRFAQD [S4L], FIPMSHNDRDFLTRIFTEDRFAQD [S4M] is lower in protein stability index: 2.02 for the first, 1.31 for the second.

First: FIPRSHNDRDFLTRIFTEDRFAQD [S4R]
Second: FIPGSHNDRDFLTRIFTEDRFAQD [S4G]
The protein stability index of the first is lower: 2.14 for the first, 2.53 for the second.

Going from FIPYSHNDRDFLTRIFTEDRFAQD [S4Y] to FIPESHNDRDFLTRIFTEDRFAQD [S4E], the protein stability index falls from 1.94 to 1.63.

Compared with FIPQSHNDRDFLTRIFTEDRFAQD [S4Q], FIPHSHNDRDFLTRIFTEDRFAQD [S4H] is lower in protein stability index: 1.89 for the first, 1.76 for the second.

First: FIPISHNDRDFLTRIFTEDRFAQD [S4I]
Second: FIPPSHNDRDFLTRIFTEDRFAQD [S4P]
The protein stability index of the first is higher: 3.25 for the first, 1.8 for the second.

Compared with FIPTSHNDRDFLTRIFTEDRFAQD [S4T], FIPKSHNDRDFLTRIFTEDRFAQD [S4K] is lower in protein stability index: 2.57 for the first, 2.29 for the second.

First: FIPWSHNDRDFLTRIFTEDRFAQD [S4W]
Second: FIPDSHNDRDFLTRIFTEDRFAQD [S4D]
The protein stability index of the first is higher: 2.19 for the first, 2.11 for the second.

Going from FIPFSHNDRDFLTRIFTEDRFAQD [S4F] to FIPNSHNDRDFLTRIFTEDRFAQD [S4N], the protein stability index rises from 1.99 to 3.06.

Going from FIPCSHNDRDFLTRIFTEDRFAQD [S4C] to FIPASHNDRDFLTRIFTEDRFAQD [S4A], the protein stability index rises from 1.39 to 2.19.

Going from FIPSSVNDRDFLTRIFTEDRFAQD [H6V] to FIPSSQNDRDFLTRIFTEDRFAQD [H6Q], the protein stability index rises from 1.5 to 1.73.

Going from FIPSSCNDRDFLTRIFTEDRFAQD [H6C] to FIPSSANDRDFLTRIFTEDRFAQD [H6A], the protein stability index rises from 1.61 to 1.71.

First: FIPSSTNDRDFLTRIFTEDRFAQD [H6T]
Second: FIPSSSNDRDFLTRIFTEDRFAQD [H6S]
The protein stability index of the first is lower: 1.38 for the first, 1.91 for the second.

First: FIPSSGNDRDFLTRIFTEDRFAQD [H6G]
Second: FIPSSFNDRDFLTRIFTEDRFAQD [H6F]
The protein stability index of the first is higher: 2.07 for the first, 1.21 for the second.

First: FIPSSINDRDFLTRIFTEDRFAQD [H6I]
Second: FIPSSWNDRDFLTRIFTEDRFAQD [H6W]
The protein stability index of the first is higher: 2.44 for the first, 1.71 for the second.

Going from FIPSSPNDRDFLTRIFTEDRFAQD [H6P] to FIPSSNNDRDFLTRIFTEDRFAQD [H6N], the protein stability index falls from 1.49 to 1.47.

First: FIPSSLNDRDFLTRIFTEDRFAQD [H6L]
Second: FIPSSDNDRDFLTRIFTEDRFAQD [H6D]
The protein stability index of the first is lower: 2.23 for the first, 2.56 for the second.

First: FIPSSRNDRDFLTRIFTEDRFAQD [H6R]
Second: FIPSSENDRDFLTRIFTEDRFAQD [H6E]
The protein stability index of the first is lower: 1.68 for the first, 1.99 for the second.

Going from FIPSSYNDRDFLTRIFTEDRFAQD [H6Y] to FIPSSMNDRDFLTRIFTEDRFAQD [H6M], the protein stability index falls from 2.21 to 1.09.

Going from FIPSSKNDRDFLTRIFTEDRFAQD [H6K] to FMPSSHNDRDFLTRIFTEDRFAQD [I2M], the protein stability index falls from 2.23 to 2.07.

Going from FGPSSHNDRDFLTRIFTEDRFAQD [I2G] to FCPSSHNDRDFLTRIFTEDRFAQD [I2C], the protein stability index falls from 2.62 to 1.46.

Going from FLPSSHNDRDFLTRIFTEDRFAQD [I2L] to FEPSSHNDRDFLTRIFTEDRFAQD [I2E], the protein stability index rises from 2.96 to 3.85.

Going from FVPSSHNDRDFLTRIFTEDRFAQD [I2V] to FWPSSHNDRDFLTRIFTEDRFAQD [I2W], the protein stability index falls from 2.73 to 2.23.

Compared with FKPSSHNDRDFLTRIFTEDRFAQD [I2K], FDPSSHNDRDFLTRIFTEDRFAQD [I2D] is higher in protein stability index: 2.92 for the first, 4.44 for the second.

Compared with FTPSSHNDRDFLTRIFTEDRFAQD [I2T], FNPSSHNDRDFLTRIFTEDRFAQD [I2N] is lower in protein stability index: 3.63 for the first, 1.96 for the second.

First: FRPSSHNDRDFLTRIFTEDRFAQD [I2R]
Second: FPPSSHNDRDFLTRIFTEDRFAQD [I2P]
The protein stability index of the first is higher: 3.12 for the first, 1.78 for the second.

Compared with FAPSSHNDRDFLTRIFTEDRFAQD [I2A], FQPSSHNDRDFLTRIFTEDRFAQD [I2Q] is lower in protein stability index: 3.29 for the first, 1.5 for the second.

Going from FFPSSHNDRDFLTRIFTEDRFAQD [I2F] to FSPSSHNDRDFLTRIFTEDRFAQD [I2S], the protein stability index falls from 3.32 to 2.2.

First: FHPSSHNDRDFLTRIFTEDRFAQD [I2H]
Second: FYPSSHNDRDFLTRIFTEDRFAQD [I2Y]
The protein stability index of the first is lower: 2.06 for the first, 3.38 for the second.

First: FIPSAHNDRDFLTRIFTEDRFAQD [S5A]
Second: FIPSGHNDRDFLTRIFTEDRFAQD [S5G]
The protein stability index of the first is higher: 2.53 for the first, 1.74 for the second.

Going from FIPSKHNDRDFLTRIFTEDRFAQD [S5K] to FIPSMHNDRDFLTRIFTEDRFAQD [S5M], the protein stability index falls from 1.67 to 1.44.

First: FIPSHHNDRDFLTRIFTEDRFAQD [S5H]
Second: FIPSQHNDRDFLTRIFTEDRFAQD [S5Q]
The protein stability index of the first is lower: 1.89 for the first, 2.55 for the second.

First: FIPSLHNDRDFLTRIFTEDRFAQD [S5L]
Second: FIPSNHNDRDFLTRIFTEDRFAQD [S5N]
The protein stability index of the first is lower: 1.41 for the first, 1.92 for the second.

First: FIPSYHNDRDFLTRIFTEDRFAQD [S5Y]
Second: FIPSRHNDRDFLTRIFTEDRFAQD [S5R]
The protein stability index of the first is lower: 1.97 for the first, 2.03 for the second.

Compared with FIPSTHNDRDFLTRIFTEDRFAQD [S5T], FIPSFHNDRDFLTRIFTEDRFAQD [S5F] is lower in protein stability index: 2.17 for the first, 1.55 for the second.

Going from FIPSPHNDRDFLTRIFTEDRFAQD [S5P] to FIPSWHNDRDFLTRIFTEDRFAQD [S5W], the protein stability index falls from 2.29 to 1.58.

Compared with FIPSIHNDRDFLTRIFTEDRFAQD [S5I], FIPSVHNDRDFLTRIFTEDRFAQD [S5V] is higher in protein stability index: 2.04 for the first, 2.09 for the second.

Compared with FIPSDHNDRDFLTRIFTEDRFAQD [S5D], FIPSCHNDRDFLTRIFTEDRFAQD [S5C] is lower in protein stability index: 2.67 for the first, 1.9 for the second.
